# Reference: the supplement of paper PMC10567573
# B1: ACSBG2 (parent)
# chain: FAQADALKGTLVSTLKEVKPTVFI
# B2: TRIM15 (parent)
# chain: LSQMGAQSSGKILLCPLCQEEEQA
# Variants of: B1
# Test: protein stability index of a GFP-peptide fusion (GPS, HEK-293T) (PSI 1-6); higher = more stable
# Settings: c terminus: a fixed tail appended
# 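Note: lentivirally expressed fusions sorted by FACS into six bins by GFP to DsRed ratio, PSI derived from sequencing read proportions per bin multiplied by bin number.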
row,Variant,protein stability index
1,FAQADALKGTLVSTLKEVKPTVTI,1.73
2,FAQADALKGTLVSTLKEVKPTVAI,1.96
3,FAQADALKGTLVSTLKEVKPTVVI,2.18
4,FAQADALKGTLVSTLKEVKPTVYI,2.32
5,FAQADALKGTLVSTLKEVKPTVDI,2.62
6,FAQADALKGTLVSTLKEVKPTVEI,2.3
7,FAQADALKGTLVSTLKEVKPTVGI,2.36
8,FAQADALKGTLVSTLKEVKPTVCI,2.52
9,FAQADALKGTLVSTLKEVKPTVWI,2.2
10,FAQADALKGTLVSTLKEVKPTVNI,1.69
11,FAQADALKGTLVSTLKEVKPTVSI,2.16
12,FAQADALKGTLVSTLKEVKPTVMI,1.86
13,FAQADALKGTLVSTLKEVKPTVHI,1.75
14,FAQADALKGTLVSTLKEVKPTVRI,2.64
15,FAQADALKGTLVSTLKEVKPTVII,1.65
16,FAQADALKGTLVSTLKEVKPTVPI,2.76
17,FAQADALKGTLVSTLKEVKPTVLI,2.52
18,FAQADALKGTLVSTLKEVKPTVQI,2.16
19,FAQADALKGTLVSTLKEVKPTVKI,2.69
20,FAQADALKGTLVSTLKEVKPTVFV,1.83
21,FAQADALKGTLVSTLKEVKPTVFA,1.98
22,FAQADALKGTLVSTLKEVKPTVFT,2.36

row,Variant,protein stability index
1,FAQADALKGTLVSTLKEVKPTVFN,3.24
2,FAQADALKGTLVSTLKEVKPTVFG,2.08
3,FAQADALKGTLVSTLKEVKPTVFH,2.02
4,FAQADALKGTLVSTLKEVKPTVFQ,2.23
5,FAQADALKGTLVSTLKEVKPTVFS,2.27
6,FAQADALKGTLVSTLKEVKPTVFM,1.16
7,FAQADALKGTLVSTLKEVKPTVFL,1.05
8,FAQADALKGTLVSTLKEVKPTVFK,2.41
9,FAQADALKGTLVSTLKEVKPTVFF,4.5
10,FAQADALKGTLVSTLKEVKPTVFW,1.26
11,FAQADALKGTLVSTLKEVKPTVFD,2.88
12,FAQADALKGTLVSTLKEVKPTVFC,2.92
13,FAQADALKGTLVSTLKEVKPTVFP,2.27
14,FAQADALKGTLVSTLKEVKPTTFI,2.77
15,FAQADALKGTLVSTLKEVKPTLFI,1.3
16,FAQADALKGTLVSTLKEVKPTPFI,2.02
17,FAQADALKGTLVSTLKEVKPTRFI,2.94
18,FAQADALKGTLVSTLKEVKPTSFI,2.05
19,FAQADALKGTLVSTLKEVKPTQFI,2.28
20,FAQADALKGTLVSTLKEVKPTKFI,2.45
21,FAQADALKGTLVSTLKEVKPTNFI,1.98
22,FAQADALKGTLVSTLKEVKPTYFI,1.67

# Variants of: B2
# Test: as above
# Settings: c terminus: a fixed tail appended
row,Variant,protein stability index
1,LSQMGAQSSGKILLCPLDQEEEQA,5.2
2,LSQMGAQSSGKILLCPLHQEEEQA,4.7
3,LSQMGAQSSGKILLCPLMQEEEQA,4.61
4,LSQMGAQSSGKILLCPLSQEEEQA,4.92
5,LSQMGAQSSGKILLCPLLQEEEQA,4.82
6,LSQMGAQSSGKILLCPLWQEEEQA,4.59
7,LSQMGAQSSGKILLCPLFQEEEQA,3.81
8,LSQMRAQSSGKILLCPLCQEEEQA,3.32
9,LSQMVAQSSGKILLCPLCQEEEQA,3.13
10,LSQMLAQSSGKILLCPLCQEEEQA,3.27
11,LSQMCAQSSGKILLCPLCQEEEQA,3.92
12,LSQMDAQSSGKILLCPLCQEEEQA,3.49
13,LSQMTAQSSGKILLCPLCQEEEQA,3.7
14,LSQMKAQSSGKILLCPLCQEEEQA,3.87
15,LSQMGATSSGKILLCPLCQEEEQA,3.99
16,LSQMGAGSSGKILLCPLCQEEEQA,3.58
17,LSQMGAWSSGKILLCPLCQEEEQA,3.84
18,LSQMGADSSGKILLCPLCQEEEQA,3.88
19,LSQMGAESSGKILLCPLCQEEEQA,3.52
20,LSQMGAQSSGKILLFPLCQEEEQA,4.16
21,LSQMGAQSSGKILLQPLCQEEEQA,4.96
22,LSQMGAQSSGKILLGPLCQEEEQA,5.51
23,LSQMGAQSSGKILLPPLCQEEEQA,4.96
24,LSQMGAQSSGKILLYPLCQEEEQA,4.39
25,LSQMGAQSSGKILLKPLCQEEEQA,4.65

row,Variant,protein stability index
1,LSQMGAQSSGKILLEPLCQEEEQA,5.1
2,LSQMGAQSSLKILLCPLCQEEEQA,2.53
3,LSQMGAQSSPKILLCPLCQEEEQA,3.78
4,LSQMGAQSSWKILLCPLCQEEEQA,2.55
5,LSQMGAQSSKKILLCPLCQEEEQA,3.71
6,LSQMGAQSSRKILLCPLCQEEEQA,3.22
7,LSQMGAQSSSKILLCPLCQEEEQA,3.79
8,LSQMGAQSSGKILLCPQCQEEEQA,4.19
9,LSQMGAQSSGKILLCPYCQEEEQA,3.34
10,LSQMGAQSSGKILLCPSCQEEEQA,4.24
11,LSQMGAQSSGKILLCPKCQEEEQA,3.6
12,LSQMGAQSSGKILLCPVCQEEEQA,3.79
13,LSQMGAQSSGKILLCPDCQEEEQA,4.97
14,LSQMGAQSSGKILLCPPCQEEEQA,5.04
15,LSQMGKQSSGKILLCPLCQEEEQA,4.68
16,LSQMGSQSSGKILLCPLCQEEEQA,4.02
17,LSQMGVQSSGKILLCPLCQEEEQA,3.81
18,LSQMGDQSSGKILLCPLCQEEEQA,3.75
19,LSQMGIQSSGKILLCPLCQEEEQA,3.93
20,LSQMGPQSSGKILLCPLCQEEEQA,3.8
21,LSQMGFQSSGKILLCPLCQEEEQA,2.6
22,LSQMGMQSSGKILLCPLCQEEEQA,3.3
23,LSQMGRQSSGKILLCPLCQEEEQA,3.17
24,LSQMGTQSSGKILLCPLCQEEEQA,3.27
25,LSQMGAQSSGMILLCPLCQEEEQA,3.12
